Assay results reported in PMC3366968, “Functional Characterization of a First Avian Cytochrome P450 of the CYP2D Subfamily (CYP2D49)” (PLoS ONE, 2012).

Substrate: CCc1cccc2cc(C(O)CNC(C)(C)C)oc12
Experiment: purified protein
Format: biochemical, Gallus gallus
Details: 2-200 µM bufuralol, NADPH, NADPH-P450 reductase, cytochrome b5, liposome, 10 mM MgCl2, 100 mM potassium phosphate pH 7.4, 37°C

B1: CYP2D49 (Gallus gallus) (protein)
chain: MTLLLWLSSWSNISVLGVFLTVFTILVDFMKRRKKWSRYPPGPMPLPFVGTMPYVNYYNPHLSFEKFRKKFGNIFSLQNCWTNVVVLNGYKTVKEALVNKSEDFADRPYMPVYEHLGYGHKSEGLVLARYGHLWKELRKFTLTTLRNFGMGKKSLEERVTEEAGFLCSAISSEGGHPFDPRFLVNNAVCNVICTITYGERFDYGDKTFKKLLTLFENSLNEEAGFLPQLLNVAPVLLRIPGLPQKIFPCQKAYVDFTQMLIDKHKETWNPAYIRDFTDAFLKEMAKGKEAEENGFNKSNLTLVTADLLVAGSETTATTLRWAFLFMLLYPEIQSKVHKEIDKVIGRNRPPTMADQVNMPYTNAVIHEVQRFGDVVPMGLPHMTYRDTELQGFFIPKGTTIITNLTSVLKDETAWKKPNEFYPEHFLNENGQFVRPEAFLPFSAGRRACLGEQLTRMELFIFFTTLMQKFTFVFPEDQPRPREDSHFAFTNSPHPYQLRAVPR
notes: full-length 502-residue ORF, N-terminal ompA leader (21 aa) plus Leu-Glu spacer, Myc-His-tagged fusion, about 55 kDa, expressed in E. coli DH5alpha, purified by Ni-NTA
Km: 3.948 ± 0.232 µM
